The record followed here is PMC6872632, “BIK1 and ERECTA Play Opposing Roles in Both Leaf and Inflorescence Development in Arabidopsis” (Frontiers in Plant Science, 2019).

For this experiment, the target named is T1, BOTRYTIS-INDUCED KINASE1 (BIK1), His-tagged recombinant protein (Arabidopsis thaliana, UniProt O48814 1-395).
T1 construct: BOTRYTIS-INDUCED KINASE1 (BIK1), Arabidopsis thaliana, full-length ORF cloned into pET-28; source: E. coli BL21, purified (Ni-Sepharose beads)
T1 sequence (looked up): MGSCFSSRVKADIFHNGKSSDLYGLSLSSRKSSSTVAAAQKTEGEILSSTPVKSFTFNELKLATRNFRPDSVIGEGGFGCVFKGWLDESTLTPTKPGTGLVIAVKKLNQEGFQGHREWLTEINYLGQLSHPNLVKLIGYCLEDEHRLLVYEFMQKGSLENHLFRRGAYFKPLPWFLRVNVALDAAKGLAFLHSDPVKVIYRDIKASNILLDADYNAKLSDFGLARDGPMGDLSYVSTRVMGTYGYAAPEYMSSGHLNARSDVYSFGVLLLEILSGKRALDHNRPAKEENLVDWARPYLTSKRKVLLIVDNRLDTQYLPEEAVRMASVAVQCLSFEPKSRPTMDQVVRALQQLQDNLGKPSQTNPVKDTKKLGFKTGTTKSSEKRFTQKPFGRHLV
Briefly: pull-down; 10 µg BIK1-His and 10 µg GST-ER/ERL1/ERL2-CD or GST with glutathione agarose beads, 25 mM Tris-HCl pH 7.5, 150 mM NaCl, 1 mM DTT, 3 h; eluted with 30 mM glutathione; BIK1-His detected with anti-His antibody. The note with it: both partners purified.

B1: ERECTA (ER) cytoplasmic domain, GST-tagged recombinant protein (domain or fragment, Arabidopsis thaliana, UniProt Q42371 602-976, looked up)
chain: CRPHNPPPFLDGSLDKPVTYSTPKLVILHMNMALHVYEDIMRMTENLSEKYIIGHGASSTVYKCVLKNCKPVAIKRLYSHNPQSMKQFETELEMLSSIKHRNLVSLQAYSLSHLGSLLFYDYLENGSLWDLLHGPTKKKTLDWDTRLKIAYGAAQGLAYLHHDCSPRIIHRDVKSSNILLDKDLEARLTDFGIAKSLCVSKSHTSTYVMGTIGYIDPEYARTSRLTEKSDVYSYGIVLLELLTRRKAVDDESNLHHLIMSKTGNNEVMEMADPDITSTCKDLGVVKKVFQLALLCTKRQPNDRPTMHQVTRVLGSFMLSEQPPAATDTSATLAGSCYVDEYANLKTPHSVNCSSMSASDAQLFLRFGQVISQNSE
notes: ERECTA (ER), Arabidopsis thaliana, truncated to the cytoplasmic domain (CD), in pGEX-4T-1; also called GST-ER-CD; ER-CD; source: E. coli BL21, purified (Glutathione Sepharose beads)
With B1, the binding result is reported as “binds”.

B2: ERL2 cytoplasmic domain, GST-tagged recombinant protein (domain or fragment, Arabidopsis thaliana, UniProt Q6XAT2 607-967, looked up)
chain: YKSKQQKPVLKGSSKQPEGSTKLVILHMDMAIHTFDDIMRVTENLDEKYIIGYGASSTVYKCTSKTSRPIAIKRIYNQYPSNFREFETELETIGSIRHRNIVSLHGYALSPFGNLLFYDYMENGSLWDLLHGPGKKVKLDWETRLKIAVGAAQGLAYLHHDCTPRIIHRDIKSSNILLDGNFEARLSDFGIAKSIPATKTYASTYVLGTIGYIDPEYARTSRLNEKSDIYSFGIVLLELLTGKKAVDNEANLHQMILSKADDNTVMEAVDAEVSVTCMDSGHIKKTFQLALLCTKRNPLERPTMQEVSRVLLSLVPSPPPKKLPSPAKVQEGEERRESHSSDTTTPQWFVQFREDISKSSL
notes: ERL2 (ER-LIKE2), Arabidopsis thaliana, truncated to the cytoplasmic domain (CD), in pGEX-4T-1; also called GST-ERL2-CD; source: E. coli BL21, purified (Glutathione Sepharose beads)
Take B2: the binding result is “binds”.

B3: ER-LIKE1 (ERL1) cytoplasmic domain, GST-tagged recombinant protein (domain or fragment, Arabidopsis thaliana, UniProt C0LGW6 604-966, looked up)
chain: YKSMQQKKILQGSSKQAEGLTKLVILHMDMAIHTFDDIMRVTENLNEKFIIGYGASSTVYKCALKSSRPIAIKRLYNQYPHNLREFETELETIGSIRHRNIVSLHGYALSPTGNLLFYDYMENGSLWDLLHGSLKKVKLDWETRLKIAVGAAQGLAYLHHDCTPRIIHRDIKSSNILLDENFEAHLSDFGIAKSIPASKTHASTYVLGTIGYIDPEYARTSRINEKSDIYSFGIVLLELLTGKKAVDNEANLHQLILSKADDNTVMEAVDPEVTVTCMDLGHIRKTFQLALLCTKRNPLERPTMLEVSRVLLSLVPSLQVAKKLPSLDHSTKKLQQENEVRNPDAEASQWFVQFREVISKSSI
notes: ER-LIKE1 (ERL1), Arabidopsis thaliana, truncated to the cytoplasmic domain (CD), in pGEX-4T-1; also called GST-ERL1-CD; source: E. coli BL21, purified (Glutathione Sepharose beads)
B3: the binding result is listed as “binds”.
